Measurements as given in patent publication US20230416360A1.

Experiments:
[1] = biological target: human CD22-ECD-His (human) (UniProt P20273); test: ELISA, coated hCD22-ECD-His, antibody 10 nM
[2] = biological target: cynomolgus monkey CD22 on peripheral blood B cells (cynomolgus monkey (Macaca fascicularis)); test: FACS, cynomolgus PBMC, CD20+ B cells, antibody 1 nM
[3] = biological target: human CD22 (full length, on cells) (human) (UniProt P20273); test: FACS, CHO-K1-human CD22 1G5
[4] = biological target: human CD22-ECD-His (human) (UniProt P20273); test: ELISA, coated hCD22-ECD-His, antibody 100 nM
[5] = biological target: human CD22-ECD-His (human) (UniProt P20273); test: ELISA, coated hCD22-ECD-His, antibody 0.0001 nM
[6] = biological target: human CD22 (full length, on cells) (human) (UniProt P20273); test: FACS, CHO-K1-human CD22 2C4 cells
[7] = biological target: cynomolgus monkey CD22 on peripheral blood B cells (cynomolgus monkey (Macaca fascicularis)); test: FACS, cynomolgus PBMC, CD20+ B cells, antibody 10 nM
[8] = biological target: human CD22-ECD-His (human) (UniProt P20273); test: ELISA, coated hCD22-ECD-His, antibody 0.01 nM
[9] = biological target: human CD22 (full length, on cells) (human) (UniProt P20273); test: FACS, CHO-K1-human CD22 1D9
[10] = biological target: cynomolgus monkey CD22 on peripheral blood B cells (cynomolgus monkey (Macaca fascicularis)); test: FACS, cynomolgus PBMC, CD20+ B cells, antibody 100 nM
[11] = biological target: human CD22 (full length, on cells) (human) (UniProt P20273); test: FACS, CHO-K1-human CD22 2C4
[12] = biological target: human CD22-ECD-His (human) (UniProt P20273); test: ELISA, coated hCD22-ECD-His, antibody 0.001 nM
[13] = biological target: human CD22-ECD-His (human) (UniProt P20273); test: ELISA, coated hCD22-ECD-His, antibody 0.10 nM
[14] = biological target: human CD22 (full length, on cells) (human) (UniProt P20273); test: FACS, Raji cells
[15] = biological target: human CD22-ECD-His (human) (UniProt P20273); test: ELISA, coated hCD22-ECD-His, antibody 0.00001 nM

anti-hel-hIgG1 (negative control antibody against chicken egg lysozyme)
OD450 [1]: 0.08 | Proportion of VHH-Fc antibody positive cells to B cells (%) [2]: 0% | Cell mean fluorescence intensity [3]: 66 | OD450 [4]: 0.15 | OD450 [5]: 0.06 | Max MFI [6]: 340 | Proportion of VHH-Fc antibody positive cells to B cells (%) [7]: 0% | OD450 [8]: 0.06 | Cell mean fluorescence intensity [9]: 66 | Proportion of VHH-Fc antibody positive cells to B cells (%) [10]: 3% | Cell mean fluorescence intensity [11]: 66 | OD450 [12]: 0.06 | OD450 [13]: 0.06 | Cell mean fluorescence density [14]: 158 | Max MFI [14]: 374 | OD450 [15]: 0.05
